pKd: −log10 of the molar value.
How the values were obtained:
LIN28A [1] = target: T1, LIN28A (UniProt Q9H9Z2); assay: EMSA; details: higher-order aggregates above 50 nM
T1 sequence: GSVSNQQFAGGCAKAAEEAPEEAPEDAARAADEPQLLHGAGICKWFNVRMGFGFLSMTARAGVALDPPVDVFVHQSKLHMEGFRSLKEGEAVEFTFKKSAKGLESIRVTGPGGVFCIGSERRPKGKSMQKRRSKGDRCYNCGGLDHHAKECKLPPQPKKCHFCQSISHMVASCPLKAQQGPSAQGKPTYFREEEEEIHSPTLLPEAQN

LIN28A [2] = target: T1, LIN28A; assay: filter; details: transition between unbound and bound at ~10 nM; aggregates retained on PES at 50 nM and above

pre-let-7a miRNA
pKd (LIN28A [1]): 7.60
pKd (LIN28A [2]): 8.00

Reference: patent US20240336918
